Assay results reported in paper PMC9254107, “The Toxoplasma glucan phosphatase TgLaforin utilizes a distinct functional mechanism that can be exploited by therapeutic inhibitors” (The Journal of Biological Chemistry, 2022).

Biological target: the molecule itself
Experiment: SEC-MALS; Superdex 200 10/300; 500 ul of 2 mg/ml protein loaded, 0.5 ml/min; purification buffer of full-length TgLaforin (50 mM Hepes, 100 mM NaCl, 15 mM imidazole, 2 mM DTT, pH 8.0)

B1: TgLaforin (Toxoplasma gondii laforin, glucan phosphatase), full length (enzyme, UniProt S8F2K7 1-523, looked up)
chain: MRVRFSVTAFVPPNAQLGVVGSAPFLGEWKLEHCVPLMPYSAPHPQGLEPSLWFRDIDLDPASCPNDTNDVHSTAAVSASCSADRRRCDLSRQSPHCFPSARSASPYMVEVSRGDCPFAVELMSTSQHVLSEFSKHNSPVYSAGEQRFRRSLPSSASFSSCTSSGSAVAATKCVWDAAAYRVATRAPEVQAVLESHPLRHCAFEYKFVLWYPPNGEIAVPYVPTTAGEEVPITYAGDSEVLNEESEGGARRRSWRKWLFPPSPSRCPAPPGPSESIVWEGFGPDSNRKFCFDPFDVVVDVNELGDLECLYICRIAHFRDPRAGGVGEYDLTTRFYNSVKSECRMHYSTIFPRFFVGSCPRQLKHIRHLKEELKVTCVVNLQTEQDLCNNYPDPIASSRSAEAVSQLYDGSGLRYVWLPTADMCDSARKIAVANAAFLLLGLFQSGHSVYMHCNAGVGRSVAAACAFLCFAVGLDLRKVNFLICARRPVAYWDEKAMKYGIGDYQAKFGHCRVVGEEAEERQHA
notes: TgLaforin, Toxoplasma gondii glucan phosphatase, ToxoDB TGME49_205290, 523 amino acids; N-terminal split CBM20 followed by a DSP domain; predicted recombinant monomer 61.5 kDa; also called T. gondii laforin; full-length TgLaforin; source: Sf9 insect cells (baculovirus), purified (Ni-agarose, SEC) to >95% homogeneity
For B1, the “stoichiometry N” value was 2.
